Residue numbers refer to the chain shown, from its start.
T1: human B7H3 (CD276) on the cell surface (human, UniProt Q5ZPR3 29-534)
T1 construct: B7H3 on A375 and other B7H3-positive or transfected cells
T1 sequence: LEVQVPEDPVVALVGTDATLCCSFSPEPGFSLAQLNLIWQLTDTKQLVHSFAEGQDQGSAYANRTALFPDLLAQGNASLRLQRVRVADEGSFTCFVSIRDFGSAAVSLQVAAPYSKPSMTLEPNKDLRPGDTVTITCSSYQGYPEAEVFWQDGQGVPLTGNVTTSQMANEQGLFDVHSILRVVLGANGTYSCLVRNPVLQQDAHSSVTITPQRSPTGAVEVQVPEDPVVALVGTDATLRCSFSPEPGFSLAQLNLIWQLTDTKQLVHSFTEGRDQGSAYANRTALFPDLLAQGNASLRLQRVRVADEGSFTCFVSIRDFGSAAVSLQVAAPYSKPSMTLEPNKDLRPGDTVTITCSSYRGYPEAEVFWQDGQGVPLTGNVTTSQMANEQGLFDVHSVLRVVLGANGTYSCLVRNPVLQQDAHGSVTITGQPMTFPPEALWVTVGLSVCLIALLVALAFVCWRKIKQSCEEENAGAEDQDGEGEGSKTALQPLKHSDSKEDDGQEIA

B1: cx5067 (bispecific antibody)
chain 1: EVQLVESGGGLVQPGGSLRLSCAASGFTFSSFGMHWVRQAPGKGLEWVAYISSDSSAIYYADTVKGRFTISRDNAKNSLYLQMNSLRDEDTAVYYCGRGRENIYYGSRLDYWGQGTTVTVSSASTKGPSVFPLAPSSKSTSGGTAALGCLVKDYFPEPVTVSWNSGALTSGVHTFPAVLQSSGLYSLSSVVTVPSSSLGTQTYICNVNHKPSNTKVDKKVEPKSCDKTHTCPPCPAPPVAGPSVFLFPPKPKDTLMISRTPEVTCVVVDVKHEDPEVKFNWYVDGVEVHNAKTKPREEEYNSTYRVVSVLTVLHQDWLNGKEYKCKVSNKALPAPIEKTISKAKGQPREPQVYTLPPSREEMTKNQVSLTCDVSGFYPSDIAVEWESDGQPENNYKTTPPVLDSDGSFFLYSKLTVDKSRWEQGDVFSCSVMHEALHNHYTQKSLSLSPGKGGGGSGGGGSGGGGSEVQLVESGGGLVQPGGSLRLSCAASGFTFSTYAMNWVRQAPGKGLEWVGRIRSKYNNYATYYADSVKGRFTISRDDSKNTLYLQMNSLRAEDTAVYYCVRHGNFGDSYVSWFAYWGQGTLVTVSS
chain 2: EVQLVESGGGLVQPGGSLRLSCAASGFTFSSFGMHWVRQAPGKGLEWVAYISSDSSAIYYADTVKGRFTISRDNAKNSLYLQMNSLRDEDTAVYYCGRGRENIYYGSRLDYWGQGTTVTVSSASTKGPSVFPLAPSSKSTSGGTAALGCLVKDYFPEPVTVSWNSGALTSGVHTFPAVLQSSGLYSLSSVVTVPSSSLGTQTYICNVNHKPSNTKVDKKVEPKSCDKTHTCPPCPAPPVAGPSVFLFPPKPKDTLMISRTPEVTCVVVDVKHEDPEVKFNWYVDGVEVHNAKTKPREEQYNSTYRVVSVLTVLHQDWLNGKEYKCKVSNKALPAPIEKTISKAKGQPREPQVYTLPPSREQMTKNQVKLTCLVKGFYPSDIAVEWESNGQPENNYKTTPPVLDSDGSFFLYSKLTVDKSRWQQGNVFSCSVMHEALHNHYTQKSLSLSPGKGGGGSGGGGSGGGGSQAVVTQEPSLTVSPGGTVTLTCGSSTGAVTTSNYANWVQQKPGKSPRGLIGGTNKRAPGVPARFSGSLLGGKAALTISGAQPEDEADYYCALWYSNHWVFGGGTKLTVL
light: DIQLTQSPSFLSASVGDRVTITCKASQNVDTNVAWYQQKPGKAPKALIYSASYRYSGVPSRFSGSGSGTDFTLTISSLQPEDFATYYCQQYNNYPFTFGQGTKLEIKRTVAAPSVFIFPPSDEQLKSGTASVVCLLNNFYPREAKVQWKVDNALQSGNSQESVTEQDSKDSTYSLSSTLTLSKADYEKHKVYACEVTHQGLSSPVTKSFNRGEC
notes: anti-CD3 Fv not disulfide-stabilized; also called MAB-FV
B2: cx6083 (bispecific antibody)
chain 1: B1 chain 1 with G510C
chain 2: B1 chain 2 with G568C
light: B1 light
notes: disulfide-stabilized anti-CD3 Fv; also called MAB-dsFV
B3: cx6084 (bispecific antibody, human IgG1, kappa)
chain 1: B1 chain 1 with S496N, G510C, G515A, S543A, N552S, D572N, S590K, S591P
chain 2: B1 chain 2 with K510Q, S511A, P512F, G568C, T573E, V574I, L575K
light: B1 light
notes: as for B2

Experiments:
[1] = target: T2, CD3 on the surface of human T cells (human, UniProt P07766 23-207); test: flow cytometry on primary human T cells, anti-human Fc secondary
T2 construct: whole, on cells; Part of the CD3/TCR complex on cells; also called CD3 epsilon
T2 sequence (P07766 23-207): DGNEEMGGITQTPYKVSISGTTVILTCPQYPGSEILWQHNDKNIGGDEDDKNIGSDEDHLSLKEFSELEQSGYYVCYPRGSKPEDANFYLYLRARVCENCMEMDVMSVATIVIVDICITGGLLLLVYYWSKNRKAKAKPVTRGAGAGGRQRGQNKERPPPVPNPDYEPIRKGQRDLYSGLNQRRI
Procedure: (§1) Binding of exemplary multispecific constructs containing an antigen-binding domain directed against B7H3 were assessed for binding to B7H3 positive A375 tumor cells or primary T-cells. The constructs were generated containing antigen-binding domain(s) that were either sdAbs or a FABs, and that were positioned either only N-terminal to the Fc or both N-terminal to the Fc and C-terminal to the anti-CD3 binding domain (see FIGS. 30A and 30C and Table E5). Among the various formats of constructs tested included: sdAb-Fc-dsFV-sdAb (cx3072, cx5952) sdAb-Fc-FV (cx6079), sdAb-Fc-dsFV (cs6080, cx6081), MAB-FV (cx5067) and MAB-dsFV (cx6083, cx6084), where the FV represents the anti-CD3 binding domain composed of VH and VL domain pairs and “ds” notes disulfide stabilized via an engineered interdomain disulfide bond.
(§2) Binding was assessed as described above via flow cytometry using a fluorophore-conjugated anti-human Fc secondary antibody. cx3072 bound to A375 cells with high affinity (FIG. 31A) but not to isolated T-cells (FIG. 31B). […] The B7H3 -targeting sdAb containing constructs (cx5952, cx6079, cx6080, and cx6081) bound to B7H3 positive cells with similar affinities (depicted in FIG. 31E), with cx5952 displaying higher maximal binding. cx6079, cx6080 and cx6081 contain two identical B7H3-targeting sdAbs, whereas cx5952, and cx3072 contain two distinct B7H3-targeting sdAb that bind different epitopes. The MAB-FV, cx5067, contains two identical B7H3-targeting FAB domains.

[2] = target: T1, human B7H3 (CD276) on the cell surface; test: flow cytometry on A375 cells (B7H3+), anti-human Fc secondary
Procedure: as §1, §2

Binder	binding result [1]	binding result [2]
B1	no binding	binds
B2	no binding	binds
B3	no binding	binds
